Results on two molecules are retold here after PMC7949164.

The assay has as its target T1, myc-tagged mouse Ccr1 Y18F mutant (mouse) (UniProt P51675).
T1 sequence: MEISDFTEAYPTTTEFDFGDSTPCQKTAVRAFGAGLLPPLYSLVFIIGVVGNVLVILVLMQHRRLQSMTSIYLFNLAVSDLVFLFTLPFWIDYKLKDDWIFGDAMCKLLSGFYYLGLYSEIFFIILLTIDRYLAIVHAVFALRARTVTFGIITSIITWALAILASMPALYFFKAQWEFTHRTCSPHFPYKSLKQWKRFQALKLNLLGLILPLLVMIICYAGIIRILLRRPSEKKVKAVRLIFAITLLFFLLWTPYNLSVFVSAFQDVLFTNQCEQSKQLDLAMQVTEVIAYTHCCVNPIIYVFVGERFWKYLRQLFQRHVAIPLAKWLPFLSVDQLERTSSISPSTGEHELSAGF

Turning to recombinant mouse Ccl9/10 (ligand), the internalisation: cell surface receptor left (MFI in % of buffer alone) after 100 nM chemokine, FACS, L1.2 cells (% cell surface receptor) was 20.

B1: recombinant mouse Ccl3 (ligand)
chain: APYGADTPTACCFSYSRKIPRQFIVDYFETSSLCSQPGVIFLTKRNRQICADSKETWVQEYITDLELNA
In the case of B1, the internalisation: cell surface receptor left (MFI in % of buffer alone) after 100 nM chemokine, FACS, L1.2 cells (% cell surface receptor) was 35.
